Source: article PMC9408373
Several values for one entry are separate records, joined by “and”; a condition that tells them apart may be missing. Equal values may be shown once.

Legend:
[1] = molecular target: the CDC42 variants (2xSW and 8xSW), mGppNHp-bound; assay: fluorescence polarisation; 1 µM mant-GppNHp-bound CDC42 in the cuvette, IQGAP protein titrated; quadratic ligand binding equation
[2] = molecular target: human CDC42 (aa 1-178) 8xSW (human) (UniProt P60953); assay: as above
[3] = molecular target: CDC42 IH variants (four different single residue mutations and a quadruple mutation of the insert helix); assay: as above
[4] = molecular target: CDC42 IH variants (four different single residue mutations and a quadruple mutation of the insert helix); assay: fluorescence polarisation; 1 µM mant-GDP-bound CDC42 in the cuvette, IQGAP protein titrated; quadratic ligand binding equation

Chain of human IQGAP1 C794 (aa 863-1657) (P46940 863-1657): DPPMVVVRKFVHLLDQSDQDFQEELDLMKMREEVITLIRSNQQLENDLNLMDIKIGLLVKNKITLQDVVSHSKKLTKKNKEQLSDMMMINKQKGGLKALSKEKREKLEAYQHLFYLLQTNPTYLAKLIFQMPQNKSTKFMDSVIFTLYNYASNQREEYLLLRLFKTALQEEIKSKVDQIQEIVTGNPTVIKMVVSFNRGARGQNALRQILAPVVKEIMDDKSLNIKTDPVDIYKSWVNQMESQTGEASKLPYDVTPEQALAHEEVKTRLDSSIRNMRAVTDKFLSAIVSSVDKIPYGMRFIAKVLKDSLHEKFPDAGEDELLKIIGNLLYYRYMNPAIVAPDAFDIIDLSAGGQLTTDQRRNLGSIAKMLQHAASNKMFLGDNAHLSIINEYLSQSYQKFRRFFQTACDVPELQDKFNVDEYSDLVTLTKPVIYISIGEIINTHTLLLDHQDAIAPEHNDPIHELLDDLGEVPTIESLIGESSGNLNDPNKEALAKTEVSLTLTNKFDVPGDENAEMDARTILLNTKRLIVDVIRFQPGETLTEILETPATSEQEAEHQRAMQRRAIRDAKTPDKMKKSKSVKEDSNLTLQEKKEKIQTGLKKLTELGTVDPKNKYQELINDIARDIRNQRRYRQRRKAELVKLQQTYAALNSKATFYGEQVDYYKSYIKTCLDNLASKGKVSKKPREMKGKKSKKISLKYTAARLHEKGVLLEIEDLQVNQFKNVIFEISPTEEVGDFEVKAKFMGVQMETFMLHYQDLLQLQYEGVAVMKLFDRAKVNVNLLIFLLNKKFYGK
Chain of human IQGAP1 GRD1 (aa 962-1345) (P46940 962-1345): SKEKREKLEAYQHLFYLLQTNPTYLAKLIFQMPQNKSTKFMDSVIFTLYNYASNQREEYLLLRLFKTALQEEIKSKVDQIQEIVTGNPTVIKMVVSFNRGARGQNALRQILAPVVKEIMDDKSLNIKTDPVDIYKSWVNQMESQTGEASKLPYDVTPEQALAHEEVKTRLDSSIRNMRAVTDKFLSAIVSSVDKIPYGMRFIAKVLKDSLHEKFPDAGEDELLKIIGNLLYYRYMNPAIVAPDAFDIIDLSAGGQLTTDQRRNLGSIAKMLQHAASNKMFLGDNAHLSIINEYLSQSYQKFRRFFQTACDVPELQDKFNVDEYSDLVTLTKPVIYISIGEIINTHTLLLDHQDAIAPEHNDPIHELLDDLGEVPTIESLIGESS
Chain of human CDC42 (aa 1-178) 8xSW (human) (P60953 1-178): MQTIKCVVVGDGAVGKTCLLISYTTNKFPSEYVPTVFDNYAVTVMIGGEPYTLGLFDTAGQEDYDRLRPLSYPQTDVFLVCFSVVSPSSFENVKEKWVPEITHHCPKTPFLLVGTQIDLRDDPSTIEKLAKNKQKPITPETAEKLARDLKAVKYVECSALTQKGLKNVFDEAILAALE

For “human IQGAP1 GRD1 (aa 962-1345) (from UniProt P46940 962-1345) (domain or fragment)”, the fold reduction in binding affinity against CDC42 WT [1] was 2 fold and 3 fold.
With “human IQGAP1 C794 (aa 863-1657) (from UniProt P46940 863-1657) (domain or fragment)” the fold reduction in binding affinity against CDC42 WT [2] was 86 fold, the fold lower affinity than for CDC42 WT [3] was 20 fold and the fold lower affinity than for CDC42 WT [4] was 3 fold.
